Experimental data taken from the DeepSol protein solubility set.

Assay: soluble on expression in E. coli; label from the status in PepcDB or PDB records

Row | Sequence | soluble on expression in E. coli
1 | MENFHFEHRGPRRDRFARERTGRPEGPHRHGHRRGRFGPEGDPGFGPGMHFGRGRGRGGRGRRGDVRSAILLLLTEEPMHGYELIQQIVERSDGVWKPSPGSIYPALSQLEDEGLVLIEKVAGRKTARLTDEGEAFVEANKTELGTPWDDVRESVGRPAEDLRGLIGLLMGAAGQVAAVGDDEQVRRAGEILTEARRAMYRLLAEDDQSEAGKDDTDS | not soluble
2 | MENLASPPDISFVIAAYNAADTIEAAVQSALDQRGVTLEVIVVDDRSADDTITFVEAIAAIDPRVRLLALEENRGPGGARNAGIEAATGRWIAVLDSDDVIRPERSACMMCRAEAANAAVAVDNLDVVYTDGRPMETMFPEEFLEERAVLTLEDFISSNILFRSTFNFGYMKPMFRRDFLNNEGLRFREDIRIGEDYILLASALAAGGLCVIEPKPGYIYNIREGSISRVLELHHVEAMMRADQEFLSHYTLLPAAMDAQQARARSLQLAHNFLTLVENIKRRSVLGALKTTIRDPAVLGHLRMPIAVRLRRLRDAMFAPAAKIQGLEHHHHHH | soluble
3 | MENLYKELGDQSLHKDFCQTVASTFSCSVNRNGKSSITWKQVQIWFQEKLKHQSQPKSKTLPSPPLQIHDLSNPSSYASNASNATFVGNSTFVQTRKGKASDLADLAFEAKSARDYAWYDVSSFLTYRVLRTGELEVRVRFSGFDNRHDEWVNVKTSVRERSIPVEPSECGRVNVGDLLLCFQEREDQALYCDGHVLNIKRGIHDHARCNCVFLVRYELDNTEESLGLERICRRPEE | not soluble
4 | MENVTESKELERLKRIDRMKTEFIANISHELRTPLTAIKAYAETIYNSLGELDLSTLKEFLEVIIDQSNHLENLLNELLDFSRLERKSLQINREKVDLCDLVESAVNAIKEFASSHNVNVLFESNVPCPVEAYIDPTRIRQVLLNLLNNGVKYSKKDAPDKYVKVILDEKDGGVLIIVEDNGIGIPDHAKDRIFEQFYRVDSSLTYEVPGTGLGLAITKEIVELHGGRIWVESEVGKGSRFFVWIPKDRAGEDNRQDN | soluble
5 | MEPMRIGPRLSVAAVSHVGRRQNNEDFHRVLPLETPAGLLLLLAVADGMGGLEAGEWASKLAIEALSEAARGYAEHLQSGRPAVGLARVMEKGFLLARRRVEREAERPGRRGMGTTLTAFLYADWLKEGVVGHIGDSRAYRFGPTGVFRLTEDHSWVAERLKEGVLTRTEAERHPYRNVLTRALGLPEARFDLVEVRLAPGEGVLLVTDGLYGHVPEEEWRLGRDLQASLEAMVAEALRRGGDDNVTAVALRVE | soluble
6 | MEQELISKKELLELTGISYGQLYRWKRKKLIPEEWFIRKSTFTGQETFFPKEKILARIEKIKELKDELSLDELAGMFAPDPAAVVLTKEEVIKRHIVSNVALQWLSDQLGDRQDVSFGQLLSLYIVDRLLRSGEINIEEGKNIWMMFESHYPKLQGKSCELVVLRKMGVTVCLLVEEAAGLYVEEGAKLVARLHVPTYIEELKLTISEG | not soluble
7 | MEQFPNSLSITLLGSAGGAAKAVLAILNQAIANEKDPIYEVLKNAKFHLVDIKQKDRTYYDELFSNLKGQLYLYEINLQNVVEFKQHLKEKRTSVVIDVSGADTIRVLSCCNELGICYINSALENEAVDQDDSLIGFQLTERYTRFEKEKEKFTNTKAIIGSGMNPGVVQWMVVELMKERPNERPRACYIVEHDTSFLNDTALIKPHTLYASWAVERFLDEAIWSYPMYMSHHRPLYFYEDVYASEYKVKLGEKEFYGCLMPHEEVLILGKNFNMEVGFLYRINEYTTNIIRQNLDQVEDLWNWNRKVFNPAEEEVAGEDLVGVLLVYENSETYMYNVMNSSQVFRKYKTNATYFQVGCGIYAGLSSLLLDQFEQGAYYVEELLLNTESKYGEYLNLYMKDFVIGHNNFTDGLLHDRVRWM | not soluble
8 | MEQIVSSLWSDCLNHLQTKVSPIDYSTWLRPLQASFANEELTLYAQNPFVENWVKDKFLTEIIDLARFLSKNEQLKITIRVGNKPTEQNLSASSTNKEELTQDTVHKFKTGLNGRLTFDNFVQGKSNQLAKAVAQQVADNPGESHCNPFSLYGGTGLGKTHLLHAVGNEILKRNPQARVVYIHSERFVQDMVKALKNNTIENFKKFYRSLDVLMIDDIQFFAKKEASQEEFFHTFNSLFERNKQIILASDHFPKNIENIEERIKSRLNWGVSTAIEPPELETRVAILMKKAEERNVELPEEVAFYLGQKLRTNVRELEGAINRVSAWCNFTKRQITIDAVRETLKDLIASYDHLVTIENIQKIVAEYYNIKMADLKSKSRTRSIARPRQMAMALAKELTSHSLPEIGREFGGRDHTTVMHACKTINELRDTDNSIQEDYTNLTRKLSSLEHHHHHH | soluble
9 | MEQNLKNIKISIIIPTLNEVGNIQQTIATTQPSVNIEVIVVDGGSQDDTVAIAQSLGVKVISSSPGRAVQMNTGAALAAGEILLFLHADTRLPVGFDEMIRAALQQPGVVAGAFALRIDADLAGLRWVEKGVYWRSHFFQMPYGDQAIFMTKAVFEKVGGFSELPIMEDFELMRRLKHIGKITVLGVAVITSGRRWLQRGVFQTTLINQVVIIAYLLGVAPAQLHSWYRQGKFFRIGGRLLEHHHHHH | soluble
10 | MEQPFDLAAELAKQPHLLEIAGNLLMKSGPEDYIGAVLCLRGTLYFKKAHTPLVRESLCQCFDEFERLAEPHLTWLWREEPAQGKPLTAYRDTQPLREMMGAMDEDDHLSFCYTSGKKSRDAGAWLFDIYGKRSWQAKMGHDLSVLEFSVPLLYQERQPLDFLQLFIDFARRLEPEQGYAGHAYNLSPTSWDNDEPSEAFMAARMPGLDVGTACLLANTPEFKPTRIKTVSWLTLLNNERLALAGGLDALRAQLPSSHFAFYRYGDGVVIQAGAYPYIAGDAEDSRPAPYVLLNHALKGIRYETIGSLHGGSHDGELRLVGWAADQWLKRLDVEDSEIPRWCDKLLSAEPYLDATNTLPERL | not soluble
11 | MEQQLTIEMIADAFSYDITGFDCGEEALNTFLKEHLKRQHDGQILRGYALVSGDTVPRLLGYYTLSGSCFERGMLPSKTQQKKIPYQNAPSVTLGRLAIDKSVQGQGWGEMLVAHVMRVVWGASKAVGIYGLFVEALNEKAKAFYLRLGFIQLVDENSNLLFYPTKSIEQLFTDDES | not soluble
12 | MEQQRSFQTETGGHLYLVPTPIGNLDDMTFRAVKTLTAVDLIAAEDTRNTQKLLNHFEITTKQISFHEHNTQERIPQLIAKLKQGMQIAQVSDAGMPSISDPGHELVNACIDAHIPVVPLPGANAGLTALIASGLAPQPFYFYGFLDRKPKDRKAEIAGLAQRPETLIFYEAPHRLKKTLQNLAAGFGDERPAVLCRELTKRYEEFLRGSLAELANWAATDTVRGEFVVLVGGNPAPTTAATTAVDLSEPIDVQVDRLIAAGEKPNDAIKEVAKLRGAKKQEIYRQYHHLDEE | soluble
13 | MERARVIAEAAAHISRELGAAAIMVSGDLNFEGIETGEIPVYYISMRPKSIIDHLVATSKDGKSPVKELGDQLTREASGNVEYVQHAAAIEYALEGPKNGIVVGVIETRGSSSIIVHNLDDNPLIKAMKECEERVNPEVMNAVLKIAFDIALTGREGKKIGAAFIVGDSEEVLKRSHQIILNPYEGHEEAHRNILDRRNWESIKEFALLDGVFVIDETGIVRAAGRYLDVDGKNIDIEKGLGGRHVSAAAISRDTVAISVTVSESGGVLRVYKDAKETICMESLQPASRYV | soluble
14 | MEREQALWIVKQQLTEQRYEHTLGVVETAVKLAKQYGADAKKAELAAIFHDYAKFRPVEEMKQIILAQNMPNDLLAYNSELWHAPVGAYLVQTEVGIDDPEVLDAIRYHTSGRAGMTVLEKIIYLADYIEPGRRFPGVDDVRRLAEEDLNRALLQAVKNTIAFLLEKRQLIYPDTIHAYNSLMREVKGEAKR | not soluble
15 | MERVNGEDIWQDREIRFDVDHKLLRLINGEIQVAKIEHVEDTKGNNGDRGTMRVTNLRLIWHAASMPRINITIGWNAITGVQSKQTTSLVTRNRGISNEAIYVLAKVSATTTKFEFIFTTTNPASHSKLFNTISSISRAYETTKMYRELKMRGVFIREDGTLKILPQETIIEKVNGVWNLSTETGSLGVFVITNIRVVWYAEMNIGYNVSVPYITLYSVRVRESKFGMALVLETTTSSGEYVLGFRVDPAERLQNLLKTVQSLHKAHLLKPIFGVSYVKEIAEKVEPRKDDDEIDIIDNNEDDVEIDDKIRPDAFASYFDGEHTATDEKQLPVLNPELGLAIEPIRNGFTLHDLWNIHVDV | not soluble
16 | MERYNTMSGKKTESSDNIVLYPGLVKRLIEKGMEALKEKDAKKALTMFEQAEQYDAEPSQILFGKALCYVELGKLDDAVLLTDQMLRNDIGNYYDILQIHLSLLVQLGRYDEVVEMLDVVLAEDRLPAKHAESFYQLLHFSRQMVEDSPTYIKEPLSEELDLKETYDDINERDSLEQWHFLQQMRKHNNPADIRTLLSFVESESNDPALRSYALHMLTMHKVEKRVRIRKFDQEAEVIPVELNADEQQRFGNAVVEQLEARLAVENPSLFKMAEQLWWQFLYALYPFTPKPEQKDLWAGAVHVAVHESNGLPFDEEEIAGMYNCRVQQMLEKGEEIHFVETETFQGISGHSFRMAGDPLEHHHHHH | soluble
17 | MESESIVYGCIRDWPGDSMERRMRRAANRRVLDSLPGGEAWPFLGREMFSRCEQSGAGLYQTQIIHFGASYQAIEYEWSLWVEQFEALLRRLYWASAVVHLETEVNGSHTFRWESERGFHTPQESDLQVRCAWEREGGRR | not soluble
18 | MESFRFDPAGNLLDNAPAPDGHQNDSLLGNLLSQYAGRHYRYDSRGNLVEKRVNGSLTRLEWDSHSRLSRLIAPDGQRTDYHYDPLGRRIAKISQGQATLYGWDGDVLAFETRDEEAVHYLFEPDSFVPLAQVHTDAIRGVKVPAWSQHHPYDPDKDPLRQPAPEPEAPKAVYYYHTDHLGTPQALTDEQGLLALEMDYQAWGQAREVIADAAGKAGIRNPFRFQGQYHDDESGLHYNRHRYYDPEIGRFISRDPIGLKGGYNLFAYAPNTIEWVDPFGLTKLRETDPKARSLSNVQTRCWYLREESKIGYQIDCTKPIKQQARQAARLRNEARIRARLLMADREKAIALHQSDPNLTFKELMALKENKKGLTGKDAYQDIVDSASKSRQSVNKALLEGVDCDKVLEGILEHHHHHH | soluble
19 | MESKAENRKKILQMLKNFSDYEKRRQNKDVLKQLTASSKWKSAKKIALYMSMPIEFNLTELFDQSDDKEILIPKCLPERQMIFAKYDKENLVRSKFGLLEPKSEIAVEPDFILVPGLIWNDEGYRIGFGGGYYDRYLANFEGSTASVLYDFQKMDFEAESHDIAVQELFIGRKNNEFLEHHHHHH | soluble
20 | MESKKRSSDKKSTEVDSMSDKESLYVSASDQPPAEITIKLEKDTKRKITIISEVENPKRARRGSADLRRQAIVNSAIRSAQSTASSRSRSRSRSRSRSTMNQQIRLARTRSASGGKLRRSRSARRRSPSSSASRSRSRSTSRTRAQSIPIRYRDRPEKIEKPIQPLPPLRLPTHLTKKSSVGSKKLPPPDCINLPSPLFILTEQQVIGASEKKTVQFVTKVLLTSKKLSLDDRKLLFAEMVEAEYVGTSRSSTDLNKSSDDEPEEEFATKIHYSSKGIYIHTVQNVRKIRSGKTSSITEEKSYANICKTKISGDHGKSTEGFLNVQCSETISVVDQKYIRSEEFKIGLTGVNVSGNVSINSSKTTFDPTKTITFSEDLMFDSKNIGITIRHSSVAEMKEMWHHEMGSFGEETSEYRELKFFFDEKKKDDNKTVGKSVVSILQGTKPSAPPASTSSSSKNSSSINSPKTPNISGSSRRSRSRAKRHKALQKRDSKTNRTPSPDRQSCKKDARPDQDPIKLSEIKVSEHVDSTGNETFYQSFPKATSTPKSPASSLNSSVLESKVKNSMQKTPDEGPSRRGAMSIRERSVSRNGDNEIDLDKSLSLKKPSASKNLASLLEKKEEARKTDVTSSMISSKPPTSPGTSVYMYNTGSANSTFMSAKDLHKERVAASTGPRSASKSPKGTLRVKETKVIREVRQEDGKPPEISEKKEETVKEEKVNLSERLRARSRASSPATPTLKRTFNQTDESNIVTLSAVKETHQTLEMTPIKVNSETVPSTSYGQRAFPESVQLDMLIDKKRLVLNVNFMLLAEKHPEVEILGFTFKGQKLWEKSSEWNLTSANTTSHTKTIARQASNILGDEEKKDEEQK | not soluble
